Sequences and labels used below:
B1: Retinoic acid receptor beta, residues 85 to 161; numbered along this chain, P10826 (parent)
chain: YKPCFVCQDKSSGYHYGVSACEGCKGFFRRSIQKNMIYTCHRDKNCVINKVTRNRCQYCRLQKCFEVGMSKESVRND

± gives the uncertainty stated by the source.

This series covers variants of B1. Nature of the series: abundance fitness (aPCA) (normalised: wild type 0, dead -1); higher = more abundant; growth selection in yeast, the domain comes from the species named. The conditions noted are these: Homo sapiens.
Take YKPCFVCQDKSSGYLYGVSACEGCKGFFRRSIQKNMIYTCHRDKNCVINKVTRNRCQYCRLQKCFEVGMSKESVRND [H15L]: the abundance fitness is -0.097 ± 0.051.

As to YKPCFVCQDKSSGYCYGVSACEGCKGFFRRSIQKNMIYTCHRDKNCVINKVTRNRCQYCRLQKCFEVGMSKESVRND [H15C], the abundance fitness was determined as 0.016 ± 0.1. Then YKPCFVCQDKSSGYMYGVSACEGCKGFFRRSIQKNMIYTCHRDKNCVINKVTRNRCQYCRLQKCFEVGMSKESVRND [H15M], with -0.006 ± 0.076. Take YKPCFVCQDKSSGYYYGVSACEGCKGFFRRSIQKNMIYTCHRDKNCVINKVTRNRCQYCRLQKCFEVGMSKESVRND [H15Y]: the abundance fitness was 0.05 ± 0.073. Then YKPCFVCQDKSSGYKYGVSACEGCKGFFRRSIQKNMIYTCHRDKNCVINKVTRNRCQYCRLQKCFEVGMSKESVRND [H15K], with -0.276 ± 0.095; and YKPCFVCQDKSSGYVYGVSACEGCKGFFRRSIQKNMIYTCHRDKNCVINKVTRNRCQYCRLQKCFEVGMSKESVRND [H15V], with -0.091 ± 0.061.

Consider YKPCFVCQDKSSGYDYGVSACEGCKGFFRRSIQKNMIYTCHRDKNCVINKVTRNRCQYCRLQKCFEVGMSKESVRND [H15D], for which the abundance fitness stood at 0.03 ± 0.061. YKPCFVCQDKSSGYFYGVSACEGCKGFFRRSIQKNMIYTCHRDKNCVINKVTRNRCQYCRLQKCFEVGMSKESVRND [H15F]: the abundance fitness is -0.111 ± 0.063. Regarding YKPCFVCQDKSSGYAYGVSACEGCKGFFRRSIQKNMIYTCHRDKNCVINKVTRNRCQYCRLQKCFEVGMSKESVRND [H15A], the abundance fitness turned out to be 0.033 ± 0.054. Then YKPCFVCQDKSSGYEYGVSACEGCKGFFRRSIQKNMIYTCHRDKNCVINKVTRNRCQYCRLQKCFEVGMSKESVRND [H15E], with -0.129 ± 0.085; and YKPCFVCQDKSSGYNYGVSACEGCKGFFRRSIQKNMIYTCHRDKNCVINKVTRNRCQYCRLQKCFEVGMSKESVRND [H15N], with -0.015 ± 0.093; and YKPCFVCQDKSSGYTYGVSACEGCKGFFRRSIQKNMIYTCHRDKNCVINKVTRNRCQYCRLQKCFEVGMSKESVRND [H15T], with -0.046 ± 0.058.

For YKPCFVCQDKSSGYWYGVSACEGCKGFFRRSIQKNMIYTCHRDKNCVINKVTRNRCQYCRLQKCFEVGMSKESVRND [H15W], the abundance fitness was -0.203 ± 0.2. Then YKPCFVCQDKSSGYGYGVSACEGCKGFFRRSIQKNMIYTCHRDKNCVINKVTRNRCQYCRLQKCFEVGMSKESVRND [H15G], with -0.25 ± 0.12.

YKPCFVCQDKSSGYIYGVSACEGCKGFFRRSIQKNMIYTCHRDKNCVINKVTRNRCQYCRLQKCFEVGMSKESVRND [H15I]: the abundance fitness is -0.348 ± 0.096. Take YKPCFVCQDKSSGYHYCVSACEGCKGFFRRSIQKNMIYTCHRDKNCVINKVTRNRCQYCRLQKCFEVGMSKESVRND [G17C]: the abundance fitness was -0.24 ± 0.1.

Regarding YKPCFVCQDKSSGYHYPVSACEGCKGFFRRSIQKNMIYTCHRDKNCVINKVTRNRCQYCRLQKCFEVGMSKESVRND [G17P], the abundance fitness is -0.164 ± 0.11.

Regarding YKPCFVCQDKSSGYHYRVSACEGCKGFFRRSIQKNMIYTCHRDKNCVINKVTRNRCQYCRLQKCFEVGMSKESVRND [G17R], the abundance fitness is -0.288 ± 0.05. Then YKPCFVCQDKSSGYHYKVSACEGCKGFFRRSIQKNMIYTCHRDKNCVINKVTRNRCQYCRLQKCFEVGMSKESVRND [G17K], with -0.138 ± 0.061. Then YKPCFVCQDKSSGYHYLVSACEGCKGFFRRSIQKNMIYTCHRDKNCVINKVTRNRCQYCRLQKCFEVGMSKESVRND [G17L], with -0.368 ± 0.058. Then YKPCFVCQDKSSGYHYMVSACEGCKGFFRRSIQKNMIYTCHRDKNCVINKVTRNRCQYCRLQKCFEVGMSKESVRND [G17M], with -0.254 ± 0.071; and YKPCFVCQDKSSGYHYTVSACEGCKGFFRRSIQKNMIYTCHRDKNCVINKVTRNRCQYCRLQKCFEVGMSKESVRND [G17T], with -0.242 ± 0.065; and YKPCFVCQDKSSGYHYVVSACEGCKGFFRRSIQKNMIYTCHRDKNCVINKVTRNRCQYCRLQKCFEVGMSKESVRND [G17V], with -0.481 ± 0.064. With YKPCFVCQDKSSGYHYHVSACEGCKGFFRRSIQKNMIYTCHRDKNCVINKVTRNRCQYCRLQKCFEVGMSKESVRND [G17H], the abundance fitness is -0.292 ± 0.13.

With YKPCFVCQDKSSGYHYSVSACEGCKGFFRRSIQKNMIYTCHRDKNCVINKVTRNRCQYCRLQKCFEVGMSKESVRND [G17S], the abundance fitness was -0.219 ± 0.052. Then YKPCFVCQDKSSGYHYQVSACEGCKGFFRRSIQKNMIYTCHRDKNCVINKVTRNRCQYCRLQKCFEVGMSKESVRND [G17Q], with -0.311 ± 0.073; and YKPCFVCQDKSSGYHYAVSACEGCKGFFRRSIQKNMIYTCHRDKNCVINKVTRNRCQYCRLQKCFEVGMSKESVRND [G17A], with -0.278 ± 0.054; and YKPCFVCQDKSSGYHYDVSACEGCKGFFRRSIQKNMIYTCHRDKNCVINKVTRNRCQYCRLQKCFEVGMSKESVRND [G17D], with -0.246 ± 0.081. On to YKPCFVCQDKSSGYHYEVSACEGCKGFFRRSIQKNMIYTCHRDKNCVINKVTRNRCQYCRLQKCFEVGMSKESVRND [G17E], for which the abundance fitness was -0.08 ± 0.057. As to YKPCFVCQDKSSGYHYYVSACEGCKGFFRRSIQKNMIYTCHRDKNCVINKVTRNRCQYCRLQKCFEVGMSKESVRND [G17Y], the abundance fitness worked out at 0.101 ± 0.21. Then YKPCFVCQDKSSGYHYNVSACEGCKGFFRRSIQKNMIYTCHRDKNCVINKVTRNRCQYCRLQKCFEVGMSKESVRND [G17N], with -0.091 ± 0.1; and YKPCFVCQDKSSGYHYWVSACEGCKGFFRRSIQKNMIYTCHRDKNCVINKVTRNRCQYCRLQKCFEVGMSKESVRND [G17W], with -0.603 ± 0.11. Then YKPCFVCQDKSSGYHYGGSACEGCKGFFRRSIQKNMIYTCHRDKNCVINKVTRNRCQYCRLQKCFEVGMSKESVRND [V18G], with -0.22 ± 0.043; and YKPCFVCQDKSSGYHYGASACEGCKGFFRRSIQKNMIYTCHRDKNCVINKVTRNRCQYCRLQKCFEVGMSKESVRND [V18A], with 0.088 ± 0.044. Then YKPCFVCQDKSSGYHYGPSACEGCKGFFRRSIQKNMIYTCHRDKNCVINKVTRNRCQYCRLQKCFEVGMSKESVRND [V18P], with -0.365 ± 0.11.

The record behind these values is the Human Domainome abundance scans (Beltran et al. 2025).
